We go through 47 sequences from the NTF2 design screens of Basanta et al. (2020).

A short description of the data set: protease stability score; higher = more stable; yeast display proteolysis, trypsin and chymotrypsin.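 Further: relative to predicted unfolded state with 0 unfolded-like and 1 meaning tenfold more protease.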
As to “SEDEKEAKETQSIYSHAVQTGDEHHLKELADPNVRIEINGVEYVGWEQLKDMLERFKNVRIKVSVRRVHQIGDKIHLNTELEEDVDGVRRVIDVRVIIWKINGRWRFKTFESQ”, the protease stability score was found to be 1.41.

Sequence “DERERIAEEILRRIAKLMETGDENEMEHLMDPNVRLVFNGVRLHGMEDWEREMRRFDHIKIHTNEIQHIRLQGEKVDNDVRVDLLYHQGDKSWKIDTRTHYHFQKVNGKWIVREIIIE” showed a protease stability score of 1.39.

In turn, “DEHTEDTRHLEEFMLRAIKTGDEHILKRLMDPNARNEQGDKHQHGMEIIAEEWSRIKNVKVIFHRVRIQGDKIDVDGELIVNGVTMRVEFYSRKIDGRWVIHSVHFE” returned a protease stability score of 1.17.

Sequence “DEHDERQHKIHRRFFEAYMTGNEDEMLQLADPNVRLHIGDKDLIGRELFSTWVRELHDRFPGMRIHIEDEDIQGEKSHHRVRIHVDGVTRNVRINQDWYNGRLREMSIDIR” returned a protease stability score of 0.353.

For “SHLKEDLRRALEKELQDLRTGDEEKIVRMMDPNVRLHIDGVELHGRDWLSRYAKEMRTEHIELRRFETQGNKIHIDTEVDLRYGDFRRDVHVEIIAIKVDGRWVKHETEVR”, the protease stability score was -0.081.

The sequence “SEDEKTWHKLMEDHIKDWITGNEEKLEENADPHARFELHVGDKRITDHGRDFIEHWVDRIKNLRIELHDFEIQGNKVHLDVRVNVNGVHEIVTIIVIVIDGKLHSLHIHVEIR” registered a protease stability score of -0.08.

“DHDDEMLEHFMNLWLHAVATGDEELLSNLLDPNVREIINGKTIHGREEFLKLYHELARRIDHIHIRVRWYDMQGEFLISKTEIEFRFNGVNLKFETKMIVLKINGKWILHSIRFE” showed a protease stability score of 1.26.

Take “DSDEEATKDFLEILIKLEMTGNEEEMRKMLDPNVRLIIDGVNLHGREALNVYLERFKNIQVEEIRIRHIEFQGEKVKIDYEWTVRINGRHHHQRTTIILIKYDGRWIIHMIHWH”: the protease stability score came to 2.55.

Regarding “SEDEKKRDESLELILRAILTGDEDLLKTLADPHVMFDWNGKELHGMNVFIHWVRHMGVDHRNIESKDKRIQGDKVRLDMTSNEHAENHEHRYRVELIIKKIDGRWIIKEFIIR”, the protease stability score stood at 1.36.

As to “HEHEEMSELWLRIFERSVDTGDWNTLIELADPNVRQDYNGREYHGRESFVHTMREDIHRADHIEFHIDRFRVIGDKLDIDGTIIIRINGQTLIYRSHLHILKYDGRWIIKEVRFK”, the protease stability score stood at 1.

With “DEREEEMQRIMEDFIRAWSTGDEKRLKELIDPRDRMIINGKERHGMEEWKTLWETLGINYIDIEHVHLQGEKARIHGTSKFNGRHHEVRIEIRVVDGRFTEVHVDII”, the protease stability score was found to be 1.78.

Sequence “DEEEKWIRHILELVLRAEKTGDEDRLSELMDPDVKLDIDGRDLHGREKVKEWIEELKHKFKNLRIIDRDIRIYGEKHNVHGELHFNGQTHSAIIILRIVDGRIKEIFVIHV” registered a protease stability score of 1.32.

With “DEVTEIAERFLEEFIQHHETGDEDRIRHLMDPHVRLTQGDKTLHGREEASRVVIELAKRIDHLHIKLTTIRVQGEKVYIHTELRMEVGDKELRFHVTFIFLKVNGRWRMHSVHIE”, the protease stability score was 1.06.

“DEDEHKYRRAAEEFFKILRTGDEDLWKRYADPTPILLLLVGDKIDEYHGMEEVMRVLHEEWRRLGVDHMHVKRVDLQGEKVEMDFTRHIGDKTIRITIIVVVIDGRMKSVEIRTH”: the protease stability score is 0.8.

Turning to “SEDEKLAHLVTELMTHSDRTGDERILEHLLDPNTRVIINGVSYHGMEAYRHMVRHIRFHNWEIHDVDSVNGQVHVDSRAEGNIDGVRDILNTWIISDKYDGRWIISEIEII”, the protease stability score was 0.53.

“DEDEEFSKEAFEMVEWVIRTGDERLIEHMMDPNAKILIDGQEFWGRHIFSKHVEELGIDHIDDFQVKDVTFFNGRVNLNGELRGNFNGKETTFELHTIALKVNGQWINHSLEIK”: the protease stability score amounted to 0.658.

For “DEEKEHAHRFYEEWVKAWRTGDFKHMLDLIDPNTKIVINGQEYHGMEMWSHIVEHLERLHGYRINHERIHHIRNIDGKVDSDVHVRGRYNGRDIDSRMHIHLDVVDGRIKSLEFRSK”, the protease stability score was found to be 1.55.

In turn, “SEDHENLRKSLEFFKHVVDTGDFRKLLQLADPNTRIIINGQTVHGMELTQKIWIHQFREAGHTRIHIRIEDIDVQGDKIQIDGKLDINGQERDTNLFIEKVNGRWIIRSIEFQ” yielded a protease stability score of 1.38.

Turning to “SEEKEEVKEVVEHVLEVMLTGDEEHSRELVDPHVRIEVGDKSRHGRDDMAHWLSHARIHRLHIKRSEVIGDYLHIDVHIDVEYNGKRMTTDVRRHELKVDGRWFIREERIE”, the protease stability score came to 1.42.

For the sequence “DEDKESAEEAFKVWVRDLMTGDEDSLRRLVDPRTLVEVGDKHFHGRDMFVHLEKLQRERADHIRIELHDFDIQGEKIHLDVRVILEQGEKRVFLRTHYLILKVNGRWIVKSLWIQ”, the protease stability score was 0.921.

As to “DENEELLTDMIRLLKNVLETGDEEHFHRLADPHVRFKIGDKIFHGREEATRIFSEVMERFKNVRLRLEHIEIIGDKITIHTRIDVGDKSYEMHIHARKVNGKWIMETLFIR”, the protease stability score is 1.17.

“SEEEELALKLLRVLWHHLETGDEETLNHLLDPDTRWNVDGVNFHGMRDFVRHFRERLKHARLHSLHVHRFSMINGVMHFDGEVNEIYGDKTERYRVRIELVVVNGRWKELYLHKI” registered a protease stability score of 1.55.

Consider “DEDEENAKMFTELLWRVLLTGDEELFKEMADPHVRVIFDGREIHGRDDIAHWITEMRFEINILRINDVRLVGDYIKIDGTMERQGEINGKRIRSSHRIIIFVRKINGKWHLEQLHFS”, for which the protease stability score was determined as 2.26.

On to “DEESKFLTEMLEDILRALITGDEEHLQTLMDPDVRVEVGDKLFIGREQASEFWRREFEEIRIDDFRIHHLEVIDGRVHVHGRVDGTIGDKHHRREIIIHDLIVNGRIKKIRIEIH”, for which the protease stability score was determined as 1.31.

Regarding “SEKEEISRRLLELWLKADATGDEKLLLKLMDPDVRIDVDGVENHGMELVTEFLREERDRIDHKIIEIKEMRVVGDKVHMDIRINIEVNGKENETRVELRLEIIDGKIRSVKIIKR”, the protease stability score was determined as 0.733.

“SEEEKHLRELSEHFIKLFLTGNEEELVNNADPHVQLHIDINGKKYHYHGREEFRKWAEERSEKIKNAKIILDHVEIQGEKLIIDTTWHFDGRNFRSKIKIKVFDGVLKEIHIEIR” registered a protease stability score of 2.1.

For the sequence “SKEEDMMRKIVEDFSRAQWTGDEKKVDELLDPNTRSDINGVHIVGMEEYLRVMKHRGVEFKHSEIKDVNLQGDKATWDGIDHVNFNGKDIELQVHIYLRKINGRWSIHTLKVQ”, the protease stability score was 0.386.

Sequence “SEEEEEMKLAKRLLENISETGDERELEELLDPNVRIVIGDKHEHGRESVEHWFRRIDHIKHFEIERVTVFDGRVEMHGRMVGTINGKHKNTRITLIAVKINGRWVLQHRILE” had a protease stability score of 0.245.

Sequence “DELDRLAEDWVKIIIHSLKTGDEDTLHKMADPNYQVEIGDFRFHGRERWIHVLREHREELGVTRVHSELHELHTFNGRAVSVVDLHVNGVTLHVIVFVRKVNGRWQDTSQVYKYE” yielded a protease stability score of 0.491.

In the case of “DERHHRVKHWVHRFVHAWITGDERELRELLDPNVRLNFEFDGRREENVGRRDVDRFIHEILEKYKNVTIIFRDFEIVGDKFHLHTELIIGDKKHRIHIEINVINGQHEWIKIHIE”, the protease stability score stood at 1.66.

Turning to “SEIEERVYRVVETFWMALRTGDEETLDDLLDPNVKLDIDGKEFHGREKYKEFLELFKGVTVESVEFRDSKISGEKAIIHVHVTLRQGDKEEHKSTELVLYKINGRWIIEHVRLK”, the protease stability score turned out to be 2.21.

For “SEDEESMRRAMEIWEKTMETGDERIYEELVDPDVKIEINGKNFIGREDAVKVFHKLGIKVSEIREVRIIGDKMILKGEDNINGRNVDSRLITRKINGKWIIESFSIV”, the protease stability score is 1.22.

In turn, “DEDEEEAEKFFWTWVESVLTGDEDMLHHLVDPNVRYSQGEKQIHGRESVVKFMSEARVDSIRIKSMHIFNGRINIDSEIDGVINGKRTRIKVHLYILKVDGRWLMQSIEVK” gave a protease stability score of 2.03.

Take “HELLKLVEEMARITVKLFMTGDWKTFKHLADPHVREIINGRTVHGMEKVVEHRKEFKEELWIESITIHDVEVQGEKAHLNTKLIGHVNGREVEVEIYVNIEIINGRWNLVEIDIR”: the protease stability score worked out at 1.76.

For the sequence “DEEDEDIHRLFHELVEALLTGDERTLLRLIDPHARLIIGDKHFHGRELIVKIIYEMLRELRVHSINMHHIDVIGEKVVLDVHIHVEQGDKHRIIRVNIISKKIDGRWLIKSIKVH”, the protease stability score was 1.16.

In turn, “SEDERFWVERLEEVLRAILTGDEDRIRELADPDVRVRYGDKELHGWKDLHEFMEFFKNVRINVRHVRNQGDKQEVDSEFTFEGRRHETELRLVVINGRVRHIEIIIR” registered a protease stability score of 1.41.

“DEDHEISKRALEQWIHDLHTGDEDTLRKFADPNARMEVDGVEHHGMELAMRILLRIDVTEIRIKDMRIVDGRVEIDGEVRDKVNGKTRESRVHLYVLKVDGRWVMESITIQ” registered a protease stability score of 0.476.

As to “SEDEENIKRHLEIWFTALKTGDEDTSRRMIDPNARFQVGDKHEHGMDSLVRELLREWKERGIELKSIRTTEIHIQGDKIFLNSRRDVLVNGVRIILETEIRFLKVDGRWLITEVSER”, the protease stability score worked out at 1.22.

Sequence “DEDKESAERAFRILVHLWETGDEHKLERMHDPNTRYHQGDKDIHGMEKILERLSHIRIKDVKLRDIKYQGEKLEVDGEIEIEVDGRNLLLRTILFFDKVDGRWVIRSIEVR” had a protease stability score of 1.52.

The sequence “SEDHEFSEHALREFIHVLMTGDERSLLKLMDPHTQLIFNGKEIHGMEEIIRIWSEHVKRFGFNHIDHVHIHHVEIQGDKIRIDGTTRGLVNGREHTHRTHLIAIKYNGKWIIHNIKID” returned a protease stability score of 1.9.

Turning to “DEEEEHSKKMTDWWLHAVLTGDEEKLRQMIDPDVKLHINGKDHVGREEAVKSLRELLHRLGVNHIHVERMDVVGDKVILNFHLRVGDKEHETRVILHIYNGRIKEIRIHIH”, the protease stability score was found to be 2.16.

In turn, “DEHHEVAHRISTMLTHILMTGNEEWLSHLADPRVRSEIGDFEIHGREHMEELLHRILNKLGADHLRIHHIEIRIQGDFLIVKVHGRTHIGDKTVTHEIIFIIIKINGRWHLHSIWFDFE” registered a protease stability score of 1.

Turning to “DHREELLHRIYELWEMVQTTGDFEKLTDLLDPDVYVNINGRNLIGRELRIRFMREIRMEIKHYKHERFHFQGDKAHIHGRLDREINIGDKHHREDITIDVHLFVIDGVIRSFEIRLI”, the protease stability score is 1.33.

Turning to “SEDTEMVRIVLEHIEHVWRTGDEHTLRELMDPHVRMDINGREHHGREHVSEIFEQEMRELGADHFRIDHKHVRIINGRIILYLRVKTHIGEKRLDIEIIIILSKVDGRWFIKEISIRHI”, the protease stability score is 1.11.

The sequence “KEHEKFVEDFARLLINIWTTGDEDLFNELADPHVRVNFNGVEHHGRENVIRYIERVLREIRIDHVQTRDWTVIDGVMHIEGHIHIHFDGRQRTHDVIFHIIIWNGKMKNVIVSFR” yielded a protease stability score of 1.67.

Take “DETEDTIHEAVKEFVTALMTGDEELLQKLMDPRTRLDYNGREIHGREEVIRLLLEMRIHHVEIKRIEIQGNKVHVDVKVDGEFNGQRRETKTIINATKINGRWVVQELVIR”: the protease stability score is 2.26.

On to “NEEEHELELAYRWYEESILTGDEDELTHLLDPHVRLQYGDKEFHGREIVLHFFHKHWREMGAKYIEVHSISLYGDKIVFDSTLHINGRTHRVHVTSRKVDGRWRIRSMRIN”, for which the protease stability score is 1.63.
